The values below come from patent publication US20050266469A1, “Alternatively spliced isoforms of checkpoint kinase 1 (CHK1)” (priority 2004, published 2005).

The target in one data set is T1, CHK1sv1 (Homo sapiens, UniProt O14757).
T1 construct: made in house; host or cells: SF9 insect cells (baculovirus, pVL1393 transfer vector)
T1 sequence (O14757 with tags, fused parts or gaps): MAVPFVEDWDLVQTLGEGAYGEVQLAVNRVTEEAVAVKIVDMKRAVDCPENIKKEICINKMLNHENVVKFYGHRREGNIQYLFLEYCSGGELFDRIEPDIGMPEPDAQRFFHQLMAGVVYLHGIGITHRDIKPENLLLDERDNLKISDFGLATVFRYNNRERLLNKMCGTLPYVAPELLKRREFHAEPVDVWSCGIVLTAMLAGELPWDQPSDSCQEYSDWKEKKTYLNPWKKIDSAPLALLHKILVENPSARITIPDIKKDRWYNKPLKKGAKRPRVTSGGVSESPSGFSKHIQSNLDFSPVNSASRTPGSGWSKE
Nature of the data set: CHK1sv1 kinase assay (Homogenous Time-Resolved Fluorescence, synthetic peptide substrate). In kind it is biochemical. The settings on record: phospho-peptide product per microgram of CHK1sv1; ATP and CDC25C peptide substrate at saturating concentrations. On the procedure: CHK1sv1 activity was assayed in vitro using a synthetic peptide substrate. The phophopeptide product was quantitated using a Homogenous Time-Resolved Fluorescence assay system (Park et al., 1999, Anal. Biochem. 269:94-104). The reaction mixture contained 40 mM HEPES, pH 7.3; 100 mM NaCl; 10 mM MgCl2; 2 mM dithiothreitol; 0.1% BSA; 0.1 mM ATP; 0.5 μM peptide substrate; and 0.1 nM CHK1sv1 enzyme in a final volume of 40 μl. […] The kinase reaction was incubated for 30 minutes at 22° C., and then terminated with 60 μl Stop/Detection Buffer (40 mM HEPES, pH 7.3; 10 mM EDTA; 0.125% Triton X-100; 1.25% BSA; 250 nM PhycoLink Streptavidin-Allophycocyanin (APC) Conjugate (Prozyme, San Leandro, Calif.); and […] Europium-chelate labeled anti-phosphotyrosine antibody (PY20, Perkin Elmer, Boston, Mass.)). The reaction was allowed to equilibrate for 2 hours at 22° C., and relative fluorescent units were read on a Discovery plate reader (Packard Biosciences). ATP Km was determined by varying ATP concentration from 0.003 to 3 mM in the reaction described above and determining the relative enzymatic rates. […] CHK1sv1 Vmax was calculated by determining the amount of phospho-peptide product formed per microgram of CHKsv1 when both ATP and CDC25C peptide substrate are at saturating concentrations.

A further data set has as its target T2, reference CHK1 (Homo sapiens, UniProt O14757).
T2 sequence (O14757 1-476): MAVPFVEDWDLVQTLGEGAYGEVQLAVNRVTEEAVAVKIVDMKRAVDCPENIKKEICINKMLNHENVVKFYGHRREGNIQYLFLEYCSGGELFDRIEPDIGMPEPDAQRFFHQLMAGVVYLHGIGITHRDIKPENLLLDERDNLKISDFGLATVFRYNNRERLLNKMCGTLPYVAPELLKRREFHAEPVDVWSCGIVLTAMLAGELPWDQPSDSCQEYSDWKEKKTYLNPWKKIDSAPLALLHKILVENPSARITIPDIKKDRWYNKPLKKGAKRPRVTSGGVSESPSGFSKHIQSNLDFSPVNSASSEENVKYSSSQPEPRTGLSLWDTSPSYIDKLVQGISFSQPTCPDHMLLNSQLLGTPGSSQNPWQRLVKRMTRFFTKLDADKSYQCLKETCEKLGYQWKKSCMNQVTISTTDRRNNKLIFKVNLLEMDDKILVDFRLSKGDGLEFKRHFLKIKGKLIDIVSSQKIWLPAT
The settings on record: previously described (O'Neill et al., 2002; Jackson et al., 2000); cited from earlier work.

B1: CHK1sv1: splice variant isoform of human CHK1 protein, exon 9 spliced to exon 11, expressed in SF9 insect cells (protein, listed as Homo sapiens)
chain: MAVPFVEDWDLVQTLGEGAYGEVQLAVNRVTEEAVAVKIVDMKRAVDCPENIKKEICINKMLNHENVVKFYGHRREGNIQYLFLEYCSGGELFDRIEPDIGMPEPDAQRFFHQLMAGVVYLHGIGITHRDIKPENLLLDERDNLKISDFGLATVFRYNNRERLLNKMCGTLPYVAPELLKRREFHAEPVDVWSCGIVLTAMLAGELPWDQPSDSCQEYSDWKEKKTYLNPWKKIDSAPLALLHKILVENPSARITIPDIKKDRWYNKPLKKGAKRPRVTSGGVSESPSGFSKHIQSNLDFSPVNSASRTPGSGWSKE
Regarding B1, the Vmax in the data set with CHK1sv1 came to 36 nmol/min/µg.

B2: CHK1: human checkpoint kinase 1 reference protein (protein, UniProt O14757 1-476, looked up)
Serine/threonine-protein …: MAVPFVEDWDLVQTLGEGAYGEVQLAVNRVTEEAVAVKIVDMKRAVDCPENIKKEICINKMLNHENVVKFYGHRREGNIQYLFLEYCSGGELFDRIEPDIGMPEPDAQRFFHQLMAGVVYLHGIGITHRDIKPENLLLDERDNLKISDFGLATVFRYNNRERLLNKMCGTLPYVAPELLKRREFHAEPVDVWSCGIVLTAMLAGELPWDQPSDSCQEYSDWKEKKTYLNPWKKIDSAPLALLHKILVENPSARITIPDIKKDRWYNKPLKKGAKRPRVTSGGVSESPSGFSKHIQSNLDFSPVNSASSEENVKYSSSQPEPRTGLSLWDTSPSYIDKLVQGISFSQPTCPDHMLLNSQLLGTPGSSQNPWQRLVKRMTRFFTKLDADKSYQCLKETCEKLGYQWKKSCMNQVTISTTDRRNNKLIFKVNLLEMDDKILVDFRLSKGDGLEFKRHFLKIKGKLIDIVSSQKIWLPAT
On to B2, for which the Vmax with reference CHK1 was 0.6 nmol/min/µg.
